# Source: IntAct's records for PubMed 25281266
# B1: Peregrin (Homo sapiens), P55201 (parent)
# chain: MGVDFDVKTFCHNLRATKPPYECPVETCRKVYKSYSGIEYHLYHYDHDNPPPPQQTPLRKHKKKGRQSRPANKQSPSPSEVSQSPGREVMSYAQAQRMVEVDLHGRVHRISIFDNLDVVSEDEEAPEEAPENGSNKENTETPAATPKSGKHKNKEKRKDSNHHHHHNVSASTTPKLPEVVYRELEQDTPDAPPRPTSYYRYIEKSAEELDEEVEYDMDEEDYIWLDIMNERRKTEGVSPIPQEIFEYLMDRLEKESYFESHNKGDPNALVDEDAVCCICNDGECQNSNVILFCDMCNLAVHQECYGVPYIPEGQWLCRRCLQSPSRAVDCALCPNKGGAFKQTDDGRWAHVVCALWIPEVCFANTVFLEPIDSIEHIPPARWKLTCYICKQRGSGACIQCHKANCYTAFHVTCAQQAGLYMKMEPVRETGANGTSFSVRKTAYCDIHTPPGSARRLPALSHSEGEEDEDEEEDEGKGWSSEKVKKAKAKSRIKMKKARKILAEKRAAAPVVSVPCIPPHRLSKITNRLTIQRKSQFMQRLHSYWTLKRQSRNGVPLLRRLQTHLQSQRNCDQVGRDSEDKNWALKEQLKSWQRLRHDLERARLLVELIRKREKLKRETIKVQQIAMEMQLTPFLILLRKTLEQLQEKDTGNIFSEPVPLSEVPDYLDHIKKPMDFFTMKQNLEAYRYLNFDDFEEDFNLIVSNCLKYNAKDTIFYRAAVRLREQGGAVLRQARRQAEKMGIDFETGMHIPHSLAGDEATHHTEDAAEEERLVLLENQKHLPVEEQLKLLLERLDEVNASKQSVGRSRRAKMIKKEMTALRRKLAHQRETGRDGPERHGPSSRGSLTPHPAACDKDGQTDSAAEESSSQETSKGLGPNMSSTPAHEVGRRTSVLFSKKNPKTAGPPKRPGRPPKNRESQMTPSHGGSPVGPPQLPIMSSLRQRKRGRSPRPSSSSDSDSDKSTEDPPMDLPANGFSGGNQPVKKSFLVYRNDCSLPRSSSDSESSSSSSSSAASDRTSTTPSKQGRGKPSFSRGTFPEDSSEDTSGTENEAYSVGTGRGVGHSMVRKSLGRGAGWLSEDEDSPLDALDLVWAKCRGYPSYPALIIDPKMPREGMFHHGVPIPVPPLEVLKLGEQMTQEAREHLYLVLFFDNKRTWQWLPRTKLVPLGVNQDLDKEKMLEGRKSNIRKSVQIAYHRALQHRSKVQGEQSSETSDSD
# Variants of: B1
# Conditions: with h2a1_human H2AC11, P0C0S8
row,effect of a mutation on the interaction,Variant
1,decreasing interaction,A709S

# Variants of: B1
# Conditions: with h4_human H4C16, P62805
row,effect of a mutation on the interaction,Variant
1,decreasing interaction,A709S

# Variants of: B1
# Conditions: with h2a1_human H2AC11, P0C0S8
# Remark: another data set of the same source
row,effect of a mutation on the interaction,Variant
1,decreasing interaction,C704A

# Variants of: B1
# Conditions: with h4_human H4C16, P62805
# Remark: another data set of the same source
row,effect of a mutation on the interaction,Variant
1,decreasing interaction,C704A

# Variants of: B1
# Conditions: with h2a1_human H2AC11, P0C0S8
# Remark: another data set of the same source
row,effect of a mutation on the interaction,Variant
1,decreasing interaction,E661A

# Variants of: B1
# Conditions: with h4_human H4C16, P62805
# Remark: another data set of the same source
row,effect of a mutation on the interaction,Variant
1,decreasing interaction,E661A

# Variants of: B1
# Conditions: with h2a1_human H2AC11, P0C0S8
# Remark: another data set of the same source
row,effect of a mutation on the interaction,Variant
1,disrupting interaction,N708A

# Variants of: B1
# Conditions: with h4_human H4C16, P62805
# Remark: another data set of the same source
row,effect of a mutation on the interaction,Variant
1,disrupting interaction,N708A

# Variants of: B1
# Conditions: with h2a1_human H2AC11, P0C0S8
# Remark: another data set of the same source
row,effect of a mutation on the interaction,Variant
1,disrupting interaction,F714A

# Variants of: B1
# Conditions: with h4_human H4C16, P62805
# Remark: another data set of the same source
row,effect of a mutation on the interaction,Variant
1,disrupting interaction,F714A

# Variants of: B1
# Conditions: with h2a1_human H2AC11, P0C0S8
# Remark: another data set of the same source
row,effect of a mutation on the interaction,Variant
1,decreasing interaction,I713A

# Variants of: B1
# Conditions: with h4_human H4C16, P62805
# Remark: another data set of the same source
row,effect of a mutation on the interaction,Variant
1,decreasing interaction,I713A
